This assay has as its target full-length uncleaved Reelin (FL-Reelin) (UniProt Q60841). The assay can be described thus: cross-linking; BS3 cross-linker, 30 minutes on ice, on FL- or C-cleaved Reelin in conditioned medium; anti-Reelin (G10) immunoblot. (In general: Immunoblotting shows a protein as a band on a membrane.)

What is called stoichiometry N is a count of units in the complex or per binding partner. In turn, “full-length uncleaved Reelin (FL-Reelin), Q60841 27-3461” gave a stoichiometry N of 2.
